According to the supplement of paper PMC7877785:
± gives the uncertainty stated by the source.

Assay: self-splicing fitness, log relative to wild type (ln ratio); higher = more splicing; Tetrahymena group I intron in knt gene, E. coli kanamycin selection, DiMSum; sequences stand for … in CUCUCU…GGAGGGAAAAGUUAUCAGGCAUGCACCUGGUAGCUAGUCUUUAAACCAAUAGAUUGCAUCGGUUUAAAAGGCAAGACCGUCAAAUUGCGGGAAAGGGGUCAACAGCCGUUCAGUACCAAGUCUCAGGGGAAACUUUGAGAUGGCCUUGCAAAGGGUAUGGUAAUAAGCUGACGGACAUGGUCCUAACCACGCAGCCAAGUCCUAAGUCAACAGAUCUUCUGUUGAUAUGGAUGCAGUUCACAGACUAAAUGUCGGUCGGGGAAGAUGUAUUCUUCUCAUAAGAUAUAGUCGGACCUCUCCUUAAUGGGAGCUAGCGGAUGAAGUGAUGCAACACUGGAGCCGCUGGGAACUAAUUUGUAUGCGAAAGUAUAUUGAUUAGUUUUGGAGUACUCGUGGUCG
Outline: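 A randomised library covering all eight P1ex-region intron nucleotides was built with the intron in the knt kanamycin-resistance gene on pET-22b(+) and held in E. coli BL21(DE3). Cells were grown overnight at 37°C or 30°C on LB agar, with or without 25 μg/mL kanamycin, plus 100 μg/mL carbenicillin, 50 μM IPTG and 0.2% rhamnose, and pooled colonies were amplicon-sequenced on an Illumina HiSeq 2500. DiMSum fitness is the error-weighted combination of wild-type-normalised replicate fold changes, kanamycin versus none.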

Sequence	self-splicing fitness (ln) (30 °C)	self-splicing fitness (ln) (37 °C)
CUAUAGCAAUAUUACGACUA	-1.87 ± 0.47	
UAGAAGCAAUAUUACGUCCG	0.777 ± 0.14	-0.199 ± 0.16
UCGUAGCAAUAUUACGUGAC	-1.99 ± 0.26	
GUUGAGCAAUAUUACGAGUU		-2.56 ± 0.33
UCUAAGCAAUAUUACGCACG	-1.11 ± 0.19	-1.8 ± 0.23
UUCGAGCAAUAUUACGGUCU	-5 ± 0.38	-5.45 ± 0.36
GGCAAGCAAUAUUACGAAUU	-0.859 ± 0.074	0.0425 ± 0.081
GAUGAGCAAUAUUACGAGUC	-4.11 ± 0.33	-2.21 ± 0.19
GGGUAGCAAUAUUACGUGAU	-2.64 ± 0.19	-0.239 ± 0.18
UCCUAGCAAUAUUACGUUUG	-3.11 ± 0.17	-3.36 ± 0.26
ACGCAGCAAUAUUACGUAGC	-3.47 ± 0.12	-1.89 ± 0.14
AAACAGCAAUAUUACGCGCU	-1.03 ± 0.072	-0.289 ± 0.087
GUACAGCAAUAUUACGGGGA	-3.21 ± 0.25	-2.33 ± 0.19
CAUUAGCAAUAUUACGGGUG	-3.18 ± 0.16	-1.57 ± 0.14
CCGCAGCAAUAUUACGCCCC	-3.29 ± 0.36	-1.4 ± 0.45
AAUCAGCAAUAUUACGAAGU	-0.414 ± 0.059	0.136 ± 0.084
AACAAGCAAUAUUACGGUGU	-2.51 ± 0.056	-1.45 ± 0.068
UUGGAGCAAUAUUACGACAU	-1.81 ± 0.02	-1.04 ± 0.036
UAGUAGCAAUAUUACGGGCG	-0.694 ± 0.14	-0.395 ± 0.12
AGUUAGCAAUAUUACGUCUU	-0.214 ± 0.096	0.541 ± 0.13
AUCUAGCAAUAUUACGAACC	-1.08 ± 0.18	-0.855 ± 0.2
UUUGAGCAAUAUUACGGACA		-2.57 ± 0.48
AAUUAGCAAUAUUACGAUGG	-3.31 ± 0.24	-0.247 ± 0.17
AAGGAGCAAUAUUACGCCCA	-1.88 ± 0.27	-1.46 ± 0.24
ACGUAGCAAUAUUACGAUCA	-0.757 ± 0.1	-0.359 ± 0.086

Sequence	self-splicing fitness (ln) (30 °C)	self-splicing fitness (ln) (37 °C)
GUCGAGCAAUAUUACGUGUG	-0.922 ± 0.12	-0.585 ± 0.17
CCCUAGCAAUAUUACGUAUC		-3.37 ± 0.39
AAUCAGCAAUAUUACGACGC	-0.394 ± 0.098	-0.936 ± 0.11
CCGGAGCAAUAUUACGUAGC	-2.74 ± 0.31	-2.04 ± 0.46
UUGGAGCAAUAUUACGCAGG	-2.96 ± 0.28	-1.99 ± 0.33
UCAAAGCAAUAUUACGCGGU	-2.75 ± 0.14	-2.97 ± 0.16
GCUCAGCAAUAUUACGUUCA	-0.466 ± 0.095	-0.686 ± 0.12
UGUGAGCAAUAUUACGUGCA	-1.1 ± 0.14	-0.55 ± 0.16
GUCAAGCAAUAUUACGAGAU	-5.3 ± 0.38	-3.28 ± 0.2
CGAAAGCAAUAUUACGCCUC		-1.53 ± 0.32
UGGAAGCAAUAUUACGAACG	-0.465 ± 0.24	-0.592 ± 0.32
CAAGAGCAAUAUUACGCGAA	-3.05 ± 0.26	-2.98 ± 0.4
UCUAAGCAAUAUUACGGGAA	-2.29 ± 0.22	-1.76 ± 0.14
CUCUAGCAAUAUUACGGGAG	-3.78 ± 0.19	-2.26 ± 0.19
GAUAAGCAAUAUUACGACUC	0.0338 ± 0.1	0.785 ± 0.13
GGCCAGCAAUAUUACGACCU	-1.96 ± 0.19	-0.345 ± 0.22
CGUAAGCAAUAUUACGCUCC	-2.95 ± 0.41	-1.74 ± 0.48
GUUGAGCAAUAUUACGCACA	-1.83 ± 0.14	-0.945 ± 0.15
GUACAGCAAUAUUACGCAGG	-3.44 ± 0.23	-1.93 ± 0.19
CACUAGCAAUAUUACGCCCG	0.71 ± 0.13	0.619 ± 0.12
GAUGAGCAAUAUUACGCUAU	-2 ± 0.38	
GUUUAGCAAUAUUACGCGUG	-1.1 ± 0.071	-0.806 ± 0.082
GAGUAGCAAUAUUACGCAAA	-2.45 ± 0.44	-1.63 ± 0.22
UUUAAGCAAUAUUACGCUGG	-2.26 ± 0.21	-0.317 ± 0.18
CUAUAGCAAUAUUACGUGGG	-3.25 ± 0.19	-2.16 ± 0.15
